Experiments:
HLA-A*68:02 = experiment: IEDB peptide-MHC binding, purified MHC/competitive/fluorescence; filed as Kd, often an IC50 or EC50 that approximates it; ≥ and ≤ were set here for values at or beyond the usual limits of such assays
HLA-B*15:09 [1] = experiment: IEDB peptide-MHC binding, purified MHC/direct/fluorescence; filed as Kd, often an IC50 or EC50 that approximates it; ≥ and ≤ were set here for values at or beyond the usual limits of such assays; details: source organism: Orthomarburgvirus marburgense
HLA-B*48:01 [2] = experiment: as above; details: source organism: Marburg virus - Musoke, Kenya, 1980
HLA-B*39:01 [3] = experiment: as above; details: source organism: Orthomarburgvirus marburgense
HLA-B*40:01 [4] = experiment: as above; details: source organism: Marburg virus - Musoke, Kenya, 1980
HLA-B*07:02 [5] = experiment: as above; details: source organism: Marburg virus - Musoke, Kenya, 1980
HLA-B*15:17 [6] = experiment: as above; details: source organism: Marburg virus - Musoke, Kenya, 1980
HLA-A*26:02 = experiment: as above; details: source organism: Orthomarburgvirus marburgense
HLA-B*44:02 = experiment: as above; details: source organism: Marburg virus - Musoke, Kenya, 1980
HLA-A*26:03 = experiment: as above; details: source organism: Orthomarburgvirus marburgense
HLA-A*01:01 [7] = experiment: as above; details: source organism: Marburg virus - Musoke, Kenya, 1980
HLA-A*02:01 [8] = experiment: as above; details: source organism: Marburg virus - Musoke, Kenya, 1980
HLA-B*08:03 [9] = experiment: as above; details: source organism: Orthomarburgvirus marburgense
HLA-A*69:01 = experiment: as above; details: source organism: Marburg virus - Musoke, Kenya, 1980
HLA-B*57:01 [10] = experiment: as above; details: source organism: Marburg virus - Musoke, Kenya, 1980
HLA-B*27:05 [11] = experiment: as above; details: source organism: Marburg virus - Musoke, Kenya, 1980
HLA-A*31:01 [12] = experiment: as above; details: source organism: Marburg virus - Musoke, Kenya, 1980
HLA-B*18:01 [13] = experiment: as above; details: source organism: Marburg virus - Musoke, Kenya, 1980
HLA-A*11:01 [14] = experiment: as above; details: source organism: Marburg virus - Musoke, Kenya, 1980
HLA-B*08:02 [15] = experiment: as above; details: source organism: Orthomarburgvirus marburgense
HLA-B*58:01 [16] = experiment: as above; details: source organism: Marburg virus - Musoke, Kenya, 1980
HLA-B*38:01 = experiment: IEDB peptide-MHC binding, purified MHC/competitive/radioactivity; filed as Kd, often an IC50 or EC50 that approximates it; ≥ and ≤ were set here for values at or beyond the usual limits of such assays; details: source organism: Homo sapiens
HLA-B*15:02 = experiment: IEDB peptide-MHC binding, purified MHC/competitive/fluorescence; filed as Kd, often an IC50 or EC50 that approximates it; ≥ and ≤ were set here for values at or beyond the usual limits of such assays; details: source organism: Giardia lamblia ATCC 50803
HLA-B*15:09 [17] = experiment: as above; details: source organism: Pleistophora sp. LS
HLA-B*48:01 [18] = experiment: as above; details: source organism: Pleistophora sp. LS
HLA-B*39:01 [19] = experiment: as above; details: source organism: Pleistophora sp. LS
HLA-B*40:01 [20] = experiment: as above; details: source organism: Pleistophora sp. LS
HLA-A*30:01 = experiment: as above; details: source organism: Pleistophora sp. LS
HLA-B*07:02 [21] = experiment: as above; details: source organism: Pleistophora sp. LS
HLA-B*15:17 [22] = experiment: as above; details: source organism: Pleistophora sp. LS
HLA-A*02:03 = experiment: as above; details: source organism: Pleistophora sp. LS
HLA-B*35:01 = experiment: as above; details: source organism: Pleistophora sp. LS
HLA-A*01:01 [23] = experiment: as above; details: source organism: Pleistophora sp. LS
HLA-A*02:01 [24] = experiment: as above; details: source organism: Pleistophora sp. LS
HLA-B*08:03 [25] = experiment: as above; details: source organism: Pleistophora sp. LS
HLA-A*26:01 = experiment: as above; details: source organism: Pleistophora sp. LS
HLA-B*57:01 [26] = experiment: as above; details: source organism: Pleistophora sp. LS
HLA-B*27:05 [27] = experiment: as above; details: source organism: Pleistophora sp. LS
HLA-A*31:01 [28] = experiment: as above; details: source organism: Pleistophora sp. LS
HLA-B*18:01 [29] = experiment: as above; details: source organism: Pleistophora sp. LS
HLA-A*11:01 [30] = experiment: as above; details: source organism: Pleistophora sp. LS
HLA-B*08:02 [31] = experiment: as above; details: source organism: Pleistophora sp. LS
HLA-B*58:01 [32] = experiment: as above; details: source organism: Pleistophora sp. LS

Sequence: SEINNLNLT
- Kd (HLA-A*68:02; source organism: Orthomarburgvirus marburgense): ≥ 20 µM
- Kd (HLA-B*15:09 [1]): ≥ 20 µM
- Kd (HLA-B*48:01 [2]): ≥ 20 µM
- Kd (HLA-B*39:01 [3]): ≥ 20 µM
- Kd (HLA-B*40:01 [4]): 7 µM
- Kd (HLA-B*07:02 [5]): ≥ 20 µM
- Kd (HLA-B*15:17 [6]): ≥ 20 µM
- Kd (HLA-A*26:02): ≥ 20 µM
- Kd (HLA-B*44:02): ≥ 20 µM
- Kd (HLA-A*26:03): ≥ 20 µM
- Kd (HLA-A*01:01 [7]): ≥ 20 µM
- Kd (HLA-A*02:01 [8]): ≥ 20 µM
- Kd (HLA-B*08:03 [9]): ≥ 20 µM
- Kd (HLA-A*69:01): ≥ 20 µM
- Kd (HLA-B*57:01 [10]): ≥ 20 µM
- Kd (HLA-B*27:05 [11]): ≥ 20 µM
- Kd (HLA-A*31:01 [12]): ≥ 20 µM
- Kd (HLA-B*18:01 [13]): 8.07 µM
- Kd (HLA-A*11:01 [14]): ≥ 20 µM
- Kd (HLA-B*08:02 [15]): ≥ 20 µM
- Kd (HLA-B*58:01 [16]): ≥ 20 µM

Sequence: SHETVTIEL
- Kd (HLA-B*38:01): 2480 nM

Sequence: TLAHTHAAY
- Kd (HLA-B*15:02): 67.1 nM

Sequence: VELQIGWTV
- Kd (HLA-B*15:09 [17]): ≥ 20 µM
- Kd (HLA-B*48:01 [18]): ≥ 20 µM
- Kd (HLA-B*39:01 [19]): 949 nM
- Kd (HLA-B*40:01 [20]): 40 nM
- Kd (HLA-A*30:01): ≥ 20 µM
- Kd (HLA-B*07:02 [21]): ≥ 20 µM
- Kd (HLA-B*15:17 [22]): ≥ 20 µM
- Kd (HLA-A*02:03): ≥ 20 µM
- Kd (HLA-B*35:01): ≥ 20 µM
- Kd (HLA-A*01:01 [23]): ≥ 20 µM
- Kd (HLA-A*02:01 [24]): 239 nM
- Kd (HLA-B*08:03 [25]): ≥ 20 µM
- Kd (HLA-A*68:02; source organism: Pleistophora sp. LS): ≥ 20 µM
- Kd (HLA-A*26:01): ≥ 20 µM
- Kd (HLA-B*57:01 [26]): ≥ 20 µM
- Kd (HLA-B*27:05 [27]): ≥ 20 µM
- Kd (HLA-A*31:01 [28]): ≥ 20 µM
- Kd (HLA-B*18:01 [29]): ≤ 1 nM
- Kd (HLA-A*11:01 [30]): ≥ 20 µM
- Kd (HLA-B*08:02 [31]): ≥ 20 µM
- Kd (HLA-B*58:01 [32]): ≥ 20 µM

Reference: the Immune Epitope Database (IEDB)
